Measured values reported in PMC3794996.

Assays:
[1] = target: A/bat/Peru/10 H18 HA ectodomain (hemagglutinin of influenza virus A/flat-faced bat/Peru/033/2010, H18N11) (influenza A virus A/flat-faced bat/Peru/033/2010 (H18N11)); assay: crystal structure
[2] = target: A/bat/Peru/10 N11 NAL protein with ectodomain plus stalk region (influenza A virus A/flat-faced bat/Peru/033/2010 (H18N11))
[3] = target: A/bat/Peru/10 N11 NAL ectodomain (neuraminidase-like protein of influenza virus A/flat-faced bat/Peru/033/2010, H18N11) (influenza A virus A/flat-faced bat/Peru/033/2010 (H18N11)); assay: crystal structure

A/bat/Peru/10 H18 HA ectodomain (hemagglutinin of influenza virus A/flat-faced bat/Peru/033/2010, H18N11) (domain or fragment)
stoichiometry N [1]: 3

A/bat/Peru/10 N11 NAL protein with ectodomain plus stalk region (domain or fragment)
stoichiometry N [2]: 4

A/bat/Peru/10 N11 NAL ectodomain (neuraminidase-like protein of influenza virus A/flat-faced bat/Peru/033/2010, H18N11) (domain or fragment)
stoichiometry N [3]: 4
